B1: EPGN: epigen, low-affinity EGFR ligand (protein, UniProt Q6UW88 23-154, looked up)
Epigen: AAVTVTPPITAQQGNWTVNKTEADNIEGPIALKFSHLCLEDHNSYCINGACAFHHELEKAICRCFTGYTGERCEHLTLTSYAVDSYEKYIAIGIGVGLLLSGFLVIFYCYIRKRCLKLKSPYNVCSGERRPL
B2: FGF4: activating ligand used to stimulate FGFR1 pYtag-expressing cells (protein, UniProt P08620 31-206, looked up)
Fibroblast growth factor 4: APTAPNGTLEAELERRWESLVALSLARLPVAAQPKEAAVQSGAGDYLLGIKRLRRLYCNVGIGFHLQALPDGRIGGAHADTRDSLLELSPVERGVVSIFGVASRFFVAMSSKGKLYGSPFFTDECTFKEILLPNNYNAYESYKYPGMFIALSKNGKTKKGNRVSPTMKVTHFLPRL

Legend:
[1] = target: EGFR (Homo sapiens, UniProt P00533); test: EGFR pYtag live-cell imaging: clearance of cytosolic ZtSH2 in NIH 3T3 cells; conditions: varying doses, NIH 3T3 EGFR pYtag
Description: Six ITAMs from the CD3γ, CD3δ, CD3ε, and CD3ζ chains of the TCR. In each case, three identical repeats of the ITAM were fused to the C-terminal tail of EGFR followed by the FusionRed fluorescent protein (EGFR-ITAM-FusionRed). Each receptor was the co-expressed with an iRFP-labeled ZtSH2 (iRFP-ZtSH2) in NIH 3T3 fibroblasts, which express negligible levels of EGFR. […] Because ZtSH2 can in principle be recruited rapidly on and off the membrane and may localize to distinct subcellular compartments, it was reasoned that pYtags could be used to monitor the subcellular activity of an RTK in individual cells over time.

[2] = target: T1, FGFR1 (Homo sapiens, UniProt P11362); test: FGFR1 pYtag in NIH 3T3 cells: clearance of cytosolic ZtSH2; format: cell-based; conditions: not in cells with ITAM-less FGFR1
T1 construct: expressed in transfected cells; host or cells: NIH 3T3 cells expressing iRFP-ZtSH2
Experimental: One advantage of the pYtag approach is its modularity: ITAMs can in principle be fused to the C-termini of many different RTKs and recruit ZtSH2 upon stimulation. Therefore, it was tested whether pYtags could be adapted to monitor the activity of receptors other than EGFR. pYtag biosensors were designed for two additional RTKs: 1) ErbB2, a ligandless member of the ErbB family that signals by heterodimerizing with ligand-bound EGFR; and 2) fibroblast growth factor receptor 1 (FGFR1), a non-ErbB family RTK. ErbB2 is a particularly challenging RTK to study because it can only be activated in conjunction with an additional RTK (e.g., EGFR), so Grb2-based biosensors would be unable to distinguish between the activity of EGFR and ErbB2.
Starting from NIH 3T3 cells expressing iRFP-ZtSH2, cell lines expressing either an ErbB2 pYtag (ErbB2-CD3ε-FusionRed), an FGFR1 pYtag (FGFR1-CD3ε-FusionRed), or ITAM-less variants of each were generated. For the ErbB2 case, cells with EGFR-Citrine were further transduced to express both required components of a functional receptor heterodimer (see FIG. 3, and FIGS. 4A-4B).
The pYtag approach is indeed modular, and this strategy can be readily adapted for monitoring the activation of distinct RTKs in individual cells.

T1 sequence (P11362 22-822, species assumed): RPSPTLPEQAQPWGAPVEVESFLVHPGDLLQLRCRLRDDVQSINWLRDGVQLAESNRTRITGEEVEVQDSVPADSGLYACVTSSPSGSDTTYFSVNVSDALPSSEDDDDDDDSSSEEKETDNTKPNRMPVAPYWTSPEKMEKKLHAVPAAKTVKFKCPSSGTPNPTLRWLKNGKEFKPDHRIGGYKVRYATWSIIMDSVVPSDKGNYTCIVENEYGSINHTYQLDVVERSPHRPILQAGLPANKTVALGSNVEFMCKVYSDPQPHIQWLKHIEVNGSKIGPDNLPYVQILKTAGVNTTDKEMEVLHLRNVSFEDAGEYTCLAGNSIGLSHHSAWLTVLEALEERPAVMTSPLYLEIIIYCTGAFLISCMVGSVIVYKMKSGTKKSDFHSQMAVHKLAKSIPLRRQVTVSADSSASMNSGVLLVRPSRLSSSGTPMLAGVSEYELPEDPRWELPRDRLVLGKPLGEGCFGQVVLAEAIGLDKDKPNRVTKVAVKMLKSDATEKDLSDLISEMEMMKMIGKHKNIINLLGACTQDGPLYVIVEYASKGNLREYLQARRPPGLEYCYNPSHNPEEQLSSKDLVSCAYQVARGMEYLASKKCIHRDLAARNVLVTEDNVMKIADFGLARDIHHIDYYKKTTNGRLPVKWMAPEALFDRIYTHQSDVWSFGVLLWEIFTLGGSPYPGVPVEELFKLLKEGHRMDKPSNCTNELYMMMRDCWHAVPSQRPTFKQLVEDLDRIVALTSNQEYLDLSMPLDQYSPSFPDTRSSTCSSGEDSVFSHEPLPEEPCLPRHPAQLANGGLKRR

Molecule	EGFR activity dynamics after low-affinity ligand [1]	ZtSH2 response of FGFR1 pYtag-expressing cells [2]
B1	rapid rise in EGFR activity followed by a plateau within minutes	–
B2	–	induced cytosolic clearance of ZtSH2

From patent US20250283885A1, “MODULAR BIOSENSOR FOR RECEPTOR TYROSINE KINASE ACTIVITY” (The Trustees of Princeton University, priority 2024, published 2025)
